Publication PMC6233088

Key:
[1] = molecular target: minimal RGA5HMA construct (RGA5 991-1072) (rice) (UniProt F7J0N2); test: ITC
[2] = molecular target: RGA5_S (RGA5 982-1116), small C-terminal fragment of RGA5 carrying the HMA domain (rice) (UniProt F7J0N2); test: crystal structure
[3] = molecular target: RGA5_S (RGA5 982-1116), small C-terminal fragment of RGA5 carrying the HMA domain (rice) (UniProt F7J0N2); test: ITC

Substance	Kd [1]	stoichiometry N [2]	Kd [3]
dSP-AVR1-CO39 (AVR1-CO39 with its signal peptide deleted), wild type, recombinant (natural protein)	7.2 µM	1	
dSP-AVR-Pia (AVR-Pia with its signal peptide deleted), recombinant (natural protein)			1.8 µM
